One series has as its target APOBEC3A D131E (human, UniProt P31941 1-199, D131E). The series can be described thus: EMSA; 60 or 80 uM protein; similar to WT; NMR: 25 mM sodium phosphate pH 6.9, 10 mM DTT, 25 C, 0.074 mM A3A; EMSA: protocol of Byeon et al. (ref 16), buffer not given, 20 nM DNA, 25-100 uM A3A.
In the next series the target is APOBEC3A E72Q (human, UniProt P31941 1-199, E72Q). The series is described as above.
A further series has as its target APOBEC3A Y130F (human, UniProt P31941 1-199, Y130F). Described as above.
The target of series [1] is T1, APOBEC3A (A3A) WT (human, UniProt P31941 1-199). The series can be described thus: EMSA; 20 nM DNA; NMR: 25 mM sodium phosphate pH 6.9, 10 mM DTT, 25 C, 0.074 mM A3A; EMSA: protocol of Byeon et al. (ref 16), buffer not given, 20 nM DNA, 25-100 uM A3A. A general note: Mobility shift assays separate free from complexed probe on a gel.
T1 sequence (P31941 whole entry): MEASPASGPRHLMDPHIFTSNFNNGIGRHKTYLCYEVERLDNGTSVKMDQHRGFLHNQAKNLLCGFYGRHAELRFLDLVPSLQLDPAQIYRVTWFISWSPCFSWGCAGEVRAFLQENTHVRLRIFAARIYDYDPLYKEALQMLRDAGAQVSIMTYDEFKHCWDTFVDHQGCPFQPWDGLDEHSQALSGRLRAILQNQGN
The target in series [2] is T1, APOBEC3A (A3A) WT. The experiment in a line: NMR titration (1H-15N HSQC); 25 mM sodium phosphate pH 6.9, 10 mM DTT, 25 C; Zn2+ enzyme; NMR: 25 mM sodium phosphate pH 6.9, 10 mM DTT, 25 C, 0.074 mM A3A; EMSA: protocol of Byeon et al. (ref 16), buffer not given, 20 nM DNA, 25-100 uM A3A.

Drawing on PMC3902935, this text covers binding result and Kd for four molecules.

APOBEC3A D131E, sequence (P31941 whole entry D131E): as the sequence (P31941 whole entry) above, with D131E counted along it
APOBEC3A E72Q, sequence (P31941 whole entry E72Q): as the sequence (P31941 whole entry) above, with E72Q counted along it
APOBEC3A Y130F, sequence (P31941 whole entry Y130F): as the sequence (P31941 whole entry) above, with Y130F counted along it

B1: JL988 80-nt ssDNA (ssDNA)
DNA: ATTATTATTATTATTATTATTATTATTATTATTATTATTATTATTTCATTTATTTATTTATTTATTTATTTATTTATTTA
Turning to B1, the binding result with APOBEC3A D131E, with APOBEC3A E72Q, with APOBEC3A Y130F and with APOBEC3A (A3A) WT [1] was “binds” throughout.

B2: JL987 70-nt ssDNA (ssDNA)
DNA: ATTATTATTATTATTATTATTATTATTATTATTATTATTTCATTTATTTATTTATTTATTTATTTATTTA
For B2, the binding result with APOBEC3A (A3A) WT [1] is “binds”.

B3: JL1181 9-nt ssRNA (ssRNA)
RNA: AUUUCAUUU
As to B3, in the series with APOBEC3A (A3A) WT [2], binding was characterised by a dissociation constant (Kd) of 420 ± 70 µM.

B4: JL986 60-nt ssDNA (ssDNA)
DNA: ATTATTATTATTATTATTATTATTATTATTATTTCATTTATTTATTTATTTATTTATTTA
B4: the binding result with APOBEC3A (A3A) WT [1] was “binds”.

The term Kd denotes the equilibrium constant for the complex coming apart. High values mean a looser complex, low ones a tighter complex.
